This is an account of results in US20240294650A1 (Alector, published 2024).

The target in the assay is T1, recombinant cynomolgus MerTK extracellular domain (cynomolgus, UniProt Q12866 21-505 (human entry)).
T1 construct: also called cyno MerTK ECD; not shown: polyHis or TEVS/Thrombin/murine IgG2a-Fc tag
T1 chain: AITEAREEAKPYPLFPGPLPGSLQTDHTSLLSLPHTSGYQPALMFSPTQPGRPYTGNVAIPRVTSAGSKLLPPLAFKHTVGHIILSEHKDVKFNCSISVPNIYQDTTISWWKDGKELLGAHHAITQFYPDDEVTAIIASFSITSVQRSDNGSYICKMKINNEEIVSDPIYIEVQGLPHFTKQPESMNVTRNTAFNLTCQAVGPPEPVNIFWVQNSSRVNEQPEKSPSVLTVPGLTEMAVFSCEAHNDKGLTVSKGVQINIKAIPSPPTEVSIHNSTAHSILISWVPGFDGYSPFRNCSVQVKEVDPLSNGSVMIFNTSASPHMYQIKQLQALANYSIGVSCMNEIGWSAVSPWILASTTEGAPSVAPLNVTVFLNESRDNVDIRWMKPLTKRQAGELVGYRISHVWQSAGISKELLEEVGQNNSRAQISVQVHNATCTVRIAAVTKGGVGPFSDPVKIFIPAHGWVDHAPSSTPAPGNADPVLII
The assay is described as follows: SPR Carterra LSA, Ab immobilised; LB = low binding (below limit of measurement), KD not determined.

B1: MTK-207 (antibody, human IgG1, V domains shown)
VH: QVQLKESGPGLVAPSQSLSITCTVSGISLTSYGVSWVRQPPGKGLEWLGIIWGDGSTNYHSALISRLSISKDNSKSQVFLKLNSLQTDDTATYYCAKGRYGNYEDWYFDVWGTGTTVTVSS
VL: DIQMTQSPASLSASVGETVTITCRASGNIHNYLAWYQQKQGKSPQLLVYNAKTLAAGVPSRFSGSGSGTQYSLKINSLQPEDFGSYYCQHFWSIPLTFGAGTKLELK
As to B1, the binding result is recorded as “binds”.

B2: MTK-216 (antibody, human IgG1, V domains shown)
VH: EVQLVESGGGLVKPGGSLKLSCAASGFTFSDYGMHWVRQAPEKGLEWVAFISSGSTTIYYADTVKGRFTISRDNAKNTLILQMTSLRSEDTAIYYCTRGGFHLDYWGQGTTLTVSS
VL: SIMMTQSPSSLAVSAGEKVTMGCKSSQSVLYSANQQNYLAWYQQKPGQSLKLLIYWASTRESGVPDRFTGSGSGTDFTLTISSVQAEDLAVYYCHQYFSSWTFGGGTKLEIK
As to B2, the binding result is recorded as “binds”.
